Among the data in US20200207869A1 are OD450 nm values, retold here.

This experiment concerns the target VWF in the plasma of the mice (endogenous murine VWF) (murine) (UniProt Q8CIZ8). The experiment is described as follows: sandwich ELISA of mouse plasma, anti-FVII capture, anti-VWF detection, n=4 mice. (In general: In an ELISA, binding on a coated surface is turned into a signal by an enzyme label.)

B1: FVII-KB13-bv (protein)
chain: AGGVAKASGGETRDMPWKPGPHRVFVTQEEAHGVLHRRRRANAFLEELRPGSLERECKEEQCSFEEAREIFKDAERTKLFWISYSDGDQCASSPCQNGGSCKDQLQSYICFCLPAFEGRNCETHKDDQLICVNENGGCEQYCSDHTGTKRSCRCHEGYSLLADGVSCTPTVEYPCGKIPILEKRNASKPQGRIVGGKVCPKGECPQVLLLVNGAQLCGGTLINTIWVVSAAHCFDKIKNWRNLIAVLGEHDLSEHDGDEQSRRVAQVIIPSTYVPGTTNHDIALLRLHQPVVLTDHVVPLCLPERTFSERTLAFVRFSLVSGWGQLLDRGATALELMVLNVPRLMTQDCLQQSRKVGDSPNITEYMFCAGYSDGSKDSCKGDSGGPHATHYRGTWYLTGIVSWGQGCATVGHFGVYTRVSQYIEWLQKLMRSEPRPGVLLRAPFPLTPRGVRLGGGSGGGSGGGSGGGSQVQLVQSGGGLVQAGDSLRLSCAASGRTFIRYAMAWFRQAPGKEREFVAAIPQSGGRSYYADSVKGRFTISRDNAKNTVYLQMNSLKPEDTAVYSCAATSTYYGRSAYSSHSGGYDYWGQGTQVTVSSGGGSGGGSGGGSGGGSQVQLVQSGGGLVQAGDSLRLSCAASGRTFIRYAMAWFRQAPGKEREFVAAIPQSGGRSYYADSVKGRFTISRDNAKNTVYLQMNSLKPEDTAVYSCAATSTYYGRSAYSSHSGGYDYWGQGTQVTVSS
Take B1: the OD450 nm came out at 0.684 OD450 nm.
